Assay results reported in patent US12533420B2 (NBE-Therapeutics AG, priority 2018, dated 2026).

Assays:
Format in all cases: biochemical
[1] = system: FITC-labelled LPQTGE peptide and GGGK-biotin; experiment: Optimization of sortase conjugation reaction conditions, HPLC-based assay; details: initial rate (samples up to 3 hours), RP-HPLC, pH 8.5, NaCl, 25° C.
Experimental: The reaction was performed at 25° C. over a period of 24 hours (with 6 samplings in the period up to 3 hours), independently varying the following parameters: • pH over a range of 4 to 11 (using a mixture of boric and citric acid, along with phosphate buffer to achieved the desired pH), while the concentration of NaCl at 500 mM; • NaCl concentration over a range of 0 to 3 M, while maintaining the pH at 8.5 (using 50 mM of sodium phosphate to establish the desired pH).
The reaction was stopped by adding 95 μL of 0.05 M HCl per 5 μL of reaction mixture. Reaction products were loaded into XBridge C18 HPLC columns equilibrated in 0.1% NH4OH in 5% methanol. Elution was performed with a linear gradient from 0 to 100% of 0.1% NH4OH in 95% methanol over 10 mL at flow rate of 0.5 mL/min and a temperature of 30° C. Eluted peptides were detected by absorbance at 497 nm and fluorescence at 522 nm (excitation at 497 nm) and peak areas were quantified.

[2] = system: FITC-labelled LPXTGE, DNPNTGDE, ENPXTNAGT, KLPXTASN and ALAXTGSE peptides; experiment: Sortase activity assay, gel-based, FITC-labelled peptide substrates; details: conjugation to 60 kDa Gly6 protein, 25° C., 6 to 24 hours, FITC emission
Experimental: The reaction was performed at 25° C. for 6 to 24 hours, and stopped by addition of reducing SDS-PAGE loading buffer, followed by 5 min. incubation at 95° C. Reaction products were loaded on a 12% SDS-PAGE gel and run according to standard protocols. Labelled reaction products were visualized by FITC emission using the FLA-9000 Imager from Fujifilm, and quantified using ImageJ software.

[3] = system: self-quenching peptide Dabcyl-QALPQTGET-Edans and triglycine; experiment: Optimization of sortase conjugation reaction conditions, fluorescence assay; details: initial rate, temperature varied 15 to 45° C., pH 8.5, 500 mM NaCl
Experimental: Reactions were performed over a period of 1 hour, varying the reaction temperature between 15 and 45° C. and measuring fluorescence over time (using a plate reader or fluorescence spectrometer, with excitation at 350 nm and emission at 495 nm).
Initial rate of sortase F-mediated ligation at different temperatures was evaluated based on regression of the fluorescence over time.

B1: sortase F: recombinant sortase F enzyme from P. acnes KPA171202, with N-terminal MS peptide and C-terminal TwinStrep-comprising tag (protein)
chain: TTTSSTSGIPAASAAKKGPVPAGCMKTPKPIVPVKYSIDGMKASAKVLSRGVDETGAAGAPPKNDPSSMAWFNQGPKIGSDKGNAVLTAHTYHKGGALGNRLYDKNNGIKKGDIIRLTDKTGQTVCYRYDHDTKVMVKDYNPNSNILYDNNGPAQAAIVICWDYVKKTGEFDSRVIFYTYPVA
modifications: Propionibacterium acnes
With B1 the “salt concentration optimum for initial sortase F activity rate” value [1] was “above 250 mM”, the “substrate peptide on which the enzyme is active” value [2] was “principally active on the LPXTGE” and the “temperature above which the reaction rate decreased” value [3] was “above 40 °C”. For the same molecule, the “temperature optimum of sortase F activity rate” value [3] was “about 25 °C”.
